Data reported in US9333268B2, “Methods of treatment with arginine deiminase” (Polaris Group, priority 2012, dated 2016).

How the values were obtained:
[1] = system: SK-LC-13 cells; test: Western blot of active caspase 3; format: cell-based, human
Procedure: Following washing, the membranes were then probed with the appropriate secondary antibody before proteins were finally visualized using ECL reagent (Perkin-Elmer, Fremont Calif., USA).
In order to determine the possible mechanism of the antiproliferative effects of ADI-PEG 20 a FACS analysis of apoptosis by sub-G1 DNA content was performed. Cells were treated for 72 h before the analysis was performed.

[2] = system: SW1222; test: MTS viability of siRNA-transfected ASS-positive SW1222 cells treated with ADI-PEG 20; format: cell-based
Procedure: (§1) To assess the anti-proliferative effect of ADI-PEG 20 on adherent cells, cells were plated a density of 2×10^3 cells per well in a tissue culture 96-microwell plate and allowed to adhere overnight. The following day, cells were treated with ADI-PEG 20 (DesigneRx Pharmaceuticals, Vacaville, Calif., USA, a subsidiary of Polaris Group, San Diego, Calif., USA) ranging from 0 to 10 mIU ml^−1. After incubation for 120 h, cell viability was determined using (3-(4,5-dimethylthiazol-2-yl)-5-(3-carboxymethoxyphenyl)-2-(4-sulfophenyl)-2H-tetrazolium) (MTS, CellTiter 96 AQueous One Solution, Promega, Madison, Wis., USA), according to the manufacturers protocol. Twenty microliters of MTS reagent was added to the appropriate control and assay wells before the plate was incubated for 2 h at 37° C. and absorbance read at 490 nm. Absolute absorbance for each treatment was determined by subtracting the background MTS absorbance, and the mean and standard deviation was calculated. The effect of the autophagy inhibitor chloroquine (Sigma) on cell proliferation was assessed using the MTS assay.
To further assess the importance of cellular ASS expression in response to treatment with ADI-PEG 20, expression of ASS was silenced through the use of ASS-specific siRNA. Small interfering RNA constructs were obtained from Integrated DNA technologies (IDT, Coralville, Iowa, USA) against the ASS-coding region. […]

[3] = system: ASS-positive colon carcinoma cell line SW1222; test: MTS proliferation assay, adherent cells; format: cell-based; conditions: 0 to 10 mIU ml^−1, 120 h
Procedure: as §1

[4] = Serum ADI-PEG 20 levels by ELISA; format: in vivo, mice
Procedure: In order to determine the effect of ADI-PEG 20 treatment on systemic arginine levels, mice sera were analyzed using high-performance liquid chromatography (HPLC). L-arginine and L-citrulline were resolved with a Pickering Laboratories PCX 5200 post-column derivatization instrument (Pickering Laboratories, Mountain View, Calif., USA) at 39° C. reaction temperature and a fluorescence detector. […] Total ADI-PEG 20 levels were measured by ELISA, as described previously (Holtsberg et al, J Control Release 80(1-3):259-271, 2002).

[5] = system: ASS-negative SCLC cell line SK-LC-13; test: MTS proliferation assay, adherent cells; format: cell-based, human; conditions: 0 to 10 mIU ml^−1, 120 h
Procedure: as §1

[6] = system: ASS-negative SCLC cell line SW1271; test: MTS proliferation assay, adherent cells; format: cell-based, human; conditions: 0 to 10 mIU ml^−1, 120 h
Procedure: as §1

[7] = system: Caki-1 xenografts; test: Caki-1 renal cell carcinoma xenografts in BALB/c-nude mice; format: in vivo; conditions: intramuscular
Procedure: The activity of ADI-PEG 20 was assessed in mice bearing Caki-1 (ATCC No. HTB-46™) xenografts. Renal cell carcinoma Caki-1 xenografts were established in female BALB/c-nude mice, 3-4 weeks of age with a body weight of 20 g (SLAC, Shanghai, China). To establish the tumors, 5×10^6 cells in media were mixed 1:1 with Matrigel High Concentration (BD Biosciences) and injected subcutaneously in the abdominal area of the mice. Tumor growth was regularly measured and tumor volume calculated using the formula (TV=(length×width^2)/2). When tumors reached an approximate volume of 125 mm^3, ADI-PEG20 was administered at doses level of 160, 320 and 640 IU/m^2 once every week for four weeks by intramuscular injection. Each study group had 9 mice. Mice were euthanized when tumors reached an approximate volume of 1100 mm^3. […] More than 80% tumor inhibition was achieved when 640 IU/m^2 was used.
In an additional experiment, the activity of ADI-PEG 20 as either a single agent or in combination with rapamycin was assessed in mice bearing Caki-1 xenograft. Renal cell carcinoma xenografts were established in female BALB/c-nude mice, 3-4 weeks of age weighing about 20 g (SLAC, Shanghai, China). […] Tumor growth was regularly measured and tumor volume calculated using the formula (TV=(length×width^2)/2). […]

[8] = in the mice; cited from earlier work

B1: ADI-PEG 20: arginine deiminase (ADI) formulated with PEG of 20,000 m.w. (protein)
chain: MSVFDSKFNGIHVYSEIGELETVLVHEPGREIDYITPARLDELLFSAILESHDARKEHQSFVKIMKDRGINVVELTDLVAETYDLASKAAKEEFIETFLEETVPVLTEANKEAVRAFLLSKPTHEMVEFMMSGITKYELGVESENELIVDPMPNLYFTRDPFASVGNGVTIHFMRYIVRRRETLFARFVFRNHPKLVKTPWYYDPAMKMSIEGGDVFIYNNETLVVGVSERTDLDTITLLAKNIKANKEVEFKRIVAINVPKWTNLMHLDTWLTMLDKNKFLYSPIANDVFKFWDYDLVNGGAEPQPQLNGLPLDKLLASIINKEPVLIPIGGAGATEMEIARETNFDGTNYLAIKPGLVIGYDRNEKTNAALKAAGITVLPFHGNQLSLGMGNARCMSMPLSRKDVKW
Question: Which activation of caspases [1] does the source give for B1 here?
Answer: no activation of caspases

Question: And the cell viability ([2]; cells treated with ASS siRNA)?
Answer: reduced cell viability

Question: What about the cell viability ([2]; control or scrambled siRNA-treated cells) of the same molecule?
Answer: no decrease in viability

Question: What about the growth [3] of the same molecule?
Answer: No effect

Question: And the “ADI-PEG 20 serum levels after end of dosing” value ([4]; administered only up to day 20)?
Answer: return to baseline levels by day 40

Question: What about the “ADI-PEG 20 serum levels” value ([4]; days 0, 12, 40, 1, 2, 5 IU) of the same molecule?
Answer: dose dependent

Question: And the proliferation [5]?
Answer: clear dose-dependent decrease in proliferation

Question: What about the proliferation [6] of the same molecule?
Answer: clear dose-dependent decrease in proliferation

Question: And the tumor growth ([7]; 160, 320 and 640 IU/m^2 weekly for four weeks)?
Answer: inhibited tumor growth in a dose dependent manner

Question: And the tumor inhibition ([7]; 640 IU/m^2 weekly for four weeks)?
Answer: More than 80%

Question: And the half-life [8]?
Answer: ~170 h
